Data published in patent publication US20230346919A1.

Biological target: SARS-CoV-2 spike SΔ21 displayed on VSV-eGFP-SARS-CoV-2-SΔ21 particles (SARS-CoV-2 isolate Wuhan-Hu-1) (UniProt P0DTC2)
Experiment: cell-based or functional assay

## mAb S309 (antibody)
  EC50, neutralization of VSV-SARS-CoV-2-SΔ21 (GRNT, Vero E6 cells): 0.067 µg/mL
